Reference: paper PMC10786891, “Massively parallel profiling of RNA-targeting CRISPR-Cas13d”
Substitutions are numbered along the chain they refer to. Names may count otherwise.

T1: EsCas13d, nuclease-dead (Eubacterium siraeum, UniProt B0MS50, R295A;H300A;R849A;H854A)
T1 sequence: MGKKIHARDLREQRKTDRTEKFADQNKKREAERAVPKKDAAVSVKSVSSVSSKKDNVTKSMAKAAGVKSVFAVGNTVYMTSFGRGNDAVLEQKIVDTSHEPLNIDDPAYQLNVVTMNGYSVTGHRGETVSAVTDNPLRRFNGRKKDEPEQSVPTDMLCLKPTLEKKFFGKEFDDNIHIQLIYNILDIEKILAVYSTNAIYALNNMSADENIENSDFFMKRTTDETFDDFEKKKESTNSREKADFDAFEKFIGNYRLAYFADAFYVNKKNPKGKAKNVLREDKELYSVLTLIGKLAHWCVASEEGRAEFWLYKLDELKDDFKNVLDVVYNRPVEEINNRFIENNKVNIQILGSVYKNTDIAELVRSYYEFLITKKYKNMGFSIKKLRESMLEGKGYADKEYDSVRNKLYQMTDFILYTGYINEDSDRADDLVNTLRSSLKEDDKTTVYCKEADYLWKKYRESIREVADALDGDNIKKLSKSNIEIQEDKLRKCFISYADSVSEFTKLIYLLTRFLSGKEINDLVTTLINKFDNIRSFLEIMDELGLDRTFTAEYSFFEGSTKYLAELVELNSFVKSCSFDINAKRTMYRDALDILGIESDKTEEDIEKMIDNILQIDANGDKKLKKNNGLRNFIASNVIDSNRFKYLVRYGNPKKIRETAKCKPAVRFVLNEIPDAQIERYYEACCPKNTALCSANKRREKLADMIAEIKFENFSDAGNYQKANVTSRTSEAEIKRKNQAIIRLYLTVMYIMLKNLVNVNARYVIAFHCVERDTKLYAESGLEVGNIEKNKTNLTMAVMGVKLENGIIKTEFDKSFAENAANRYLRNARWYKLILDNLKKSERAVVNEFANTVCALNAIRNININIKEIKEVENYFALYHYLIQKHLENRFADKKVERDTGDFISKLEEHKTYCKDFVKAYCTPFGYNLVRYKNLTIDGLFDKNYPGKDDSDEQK

B1: target 1 C7A,A18U (mixed)
RNA 1: CACCCGUGCAAAAAUGCAGGGGUCUAAAACUGAGCGGAUAACCUCUCUAUGG
RNA 2: GGGAAUGGAUCCACAUCUACGAAUUCGUACCAUUGAGAGGUUAUACGCUCACCGAGAUCGGAAGAGCACACGU
B2: target 1 C7A,A14U (mixed)
RNA 1: B1 RNA 1
RNA 2: B1 RNA 2 with U34A, A38U
B3: target 1 insU 3' of 14,insC 3' of 9 (mixed)
RNA 1: B1 RNA 1
RNA 2: GGGAAUGGAUCCACAUCUACGAAUUCGUACCAUAGAGAUGGUUACUCCGCUCACCGAGAUCGGAAGAGCACACGU
B4: target 1 C4G,U19A (mixed)
RNA 1: B1 RNA 1
RNA 2: B1 RNA 2 with U33A, U34A, A45C, C48G
B5: target 1 insC 3' of 22,insA 3' of 15 (mixed)
RNA 1: B1 RNA 1
RNA 2: GGGAAUGGAUCCACAUCUACGAAUUCGUACCCAUAGAGAAGGUUAUCCGCUCACCGAGAUCGGAAGAGCACACGU
B6: target 1 C6U,G13A (mixed)
RNA 1: B1 RNA 1
RNA 2: B1 RNA 2 with U34A, G39A, A45C, C46U
B7: target 1 U8C,U10G (mixed)
RNA 1: B1 RNA 1
RNA 2: B1 RNA 2 with U34A, U42G, U44C, A45C
B8: target 1 U3G,C4U (mixed)
RNA 1: B1 RNA 1
RNA 2: B1 RNA 2 with U34A, A45C, C48U, U49G
B9: target 1 insG 3' of 11,insA 3' of 5 (mixed)
RNA 1: B1 RNA 1
RNA 2: B3 RNA 2 with U39G, G41U, U42G, C45U, U46C, C48G, G49A
B10: target 1 insU 3' of 21,insA 3' of 12 (mixed)
RNA 1: B1 RNA 1
RNA 2: B5 RNA 2 with C32U, A40G, G42A
B11: target 1 A1C,U8G (mixed)
RNA 1: B1 RNA 1
RNA 2: B1 RNA 2 with U34A, U44G, A45C, A51C
B12: target 1 insU 3' of 21,insG 3' of 20 (mixed)
RNA 1: B1 RNA 1
RNA 2: B5 RNA 2 with C32U, U34G, A35U, G36A, A37G, G38A, A39G
B13: target 1 insG 3' of 3,insG 3' of 3 (mixed)
RNA 1: B1 RNA 1
RNA 2: B3 RNA 2 with U39G, G41U, U43A, A44U, U46C, C47G, G49U, C50G, U51G
B14: target 1 C4A,A9C (mixed)
RNA 1: B1 RNA 1
RNA 2: B1 RNA 2 with U34A, A43C, A45C, C48A
B15: target 1 insU 3' of 22,insU 3' of 20 (mixed)
RNA 1: B1 RNA 1
RNA 2: B5 RNA 2 with C31U, A35U, G36A, A37G, G38A, A39G
B16: target 1 U11G,G15A (mixed)
RNA 1: B1 RNA 1
RNA 2: B1 RNA 2 with U34A, G37A, U41G, A45C
B17: target 1 G5C,G17U (mixed)
RNA 1: B1 RNA 1
RNA 2: B1 RNA 2 with U34A, G35U, A45C, G47C
B18: target 1 insA 3' of 10,insA 3' of 10 (mixed)
RNA 1: B1 RNA 1
RNA 2: B3 RNA 2 with U39G, G41U, U43A, C45A
B19: target 1 insA 3' of 19,insA 3' of 6 (mixed)
RNA 1: B1 RNA 1
RNA 2: B3 RNA 2 with G35A, A36G, G37A, A38G, U39A, C45U, U46C, C48A
B20: target 1 insG 3' of 11,insU 3' of 6 (mixed)
RNA 1: B1 RNA 1
RNA 2: B3 RNA 2 with U39G, G41U, U42G, C45U, U46C, C48U
B21: target 1 insG 3' of 14,insU 3' of 5 (mixed)
RNA 1: B1 RNA 1
RNA 2: B3 RNA 2 with U39G, C45U, U46C, C48G, G49U
B22: target 1 insU 3' of 7,insC 3' of 3 (mixed)
RNA 1: B1 RNA 1
RNA 2: B3 RNA 2 with U39G, G41U, U43A, A44U, C48G, G49C, C50U, U51C
B23: target 1 insU 3' of 9,insU 3' of 4 (mixed)
RNA 1: B1 RNA 1
RNA 2: B3 RNA 2 with U39G, G41U, U43A, A44U, C45U, U46C, C48G, G49C, C50U
B24: target 1 insC 3' of 14,insC 3' of 10 (mixed)
RNA 1: B1 RNA 1
RNA 2: B3 RNA 2 with U39C, A44C, C45A
B25: target 1 U10A,G17U (mixed)
RNA 1: B1 RNA 1
RNA 2: B1 RNA 2 with U34A, G35U, U42A, A45C
B26: target 1 insC 3' of 15,insA 3' of 7 (mixed)
RNA 1: B1 RNA 1
RNA 2: B3 RNA 2 with A38C, U39A, C45U, U46C, C47A
B27: target 1 insU 3' of 4,insU 3' of 4 (mixed)
RNA 1: B1 RNA 1
RNA 2: B3 RNA 2 with U39G, G41U, U43A, A44U, U46C, C47G, G49U, C50U
B28: target 1 insU 3' of 6,insA 3' of 3 (mixed)
RNA 1: B1 RNA 1
RNA 2: GGGAAUGGAUCCACAUCUACGAAUUCGUACCAUAGAGAGGUUAUCCUGCUACACCGAGAUCGGAAGAGCACACGU
B29: target 1 A9G,U10A (mixed)
RNA 1: B1 RNA 1
RNA 2: B1 RNA 2 with U34A, U42A, A43G, A45C

Biological target: T1, EsCas13d, nuclease-dead
Assay: crRNA (strand 1, pre-loaded); Mg2+; 40 mM Tris-HCl pH 7.5, 150 mM NaCl, 6 mM MgCl2, 1 mM DTT, 0.1% Tween-20, 0.2 mg/ml BSA; 25 C; 10 min per concentration, then washed
Conditions: tags: His6-TwinStrep-SUMO cleaved; N-terminal SNAP kept (SNAP-Surface 488); label: 3' end held by stalled T7 RNA polymerase

Binder | Kd [nM]
B1 | 36.4 ± 2.8
B2 | 39 ± 3.5
B3 | 46 ± 4
B4 | 51 ± 18
B5 | 10.9 ± 0.8
B6 | 9 ± 1.1
B7 | 13.5 ± 0.9
B8 | 7.2 ± 0.6
B9 | 26.5 ± 2.9
B10 | 63 ± 9
B11 | 22.4 ± 1.7
B12 | 40 ± 11
B13 | 5.5 ± 0.5
B14 | 7.1 ± 0.7
B15 | 63 ± 6
B16 | 59 ± 7
B17 | 28.1 ± 2
B18 | 7.81 ± 0.3
B19 | 23.2 ± 0.9
B20 | 62 ± 8
B21 | 29.6 ± 2.1
B22 | 15.6 ± 0.7
B23 | 14.3 ± 1.2
B24 | 55 ± 22
B25 | 37.2 ± 3.2
B26 | 12.6 ± 1
B27 | 9.4 ± 0.5
B28 | 8.07 ± 0.3
B29 | 15.5 ± 0.6
